From IntAct's records for PubMed 20142513 come the findings set out here.

B1: Protein ERGIC-53 (Homo sapiens), P49257 (parent)
chain: MAGSRQRGLRARVRPLFCALLLSLGRFVRGDGVGGDPAVALPHRRFEYKYSFKGPHLVQSDGTVPFWAHAGNAIPSSDQIRVAPSLKSQRGSVWTKTKAAFENWEVEVTFRVTGRGRIGADGLAIWYAENQGLEGPVFGSADLWNGVGIFFDSFDNDGKKNNPAIVIIGNNGQIHYDHQNDGASQALASCQRDFRNKPYPVRAKITYYQNTLTVMINNGFTPDKNDYEFCAKVENMIIPAQGHFGISAATGGLADDHDVLSFLTFQLTEPGKEPPTPDKEISEKEKEKYQEEFEHFQQELDKKKEEFQKGHPDLQGQPAEEIFESVGDRELRQVFEGQNRIHLEIKQLNRQLDMILDEQRRYVSSLTEEISKRGAGMPGQHGQITQQELDTVVKTQHEILRQVNEMKNSMSETVRLVSGMQHPGSAGGVYETTQHFIDIKEHLHIVKRDIDNLVQRNMPSNEKPKCPELPPFPSCLSTVHFIIFVVVQTVLFIGYIMYRSQQEAAAKKFF
partner: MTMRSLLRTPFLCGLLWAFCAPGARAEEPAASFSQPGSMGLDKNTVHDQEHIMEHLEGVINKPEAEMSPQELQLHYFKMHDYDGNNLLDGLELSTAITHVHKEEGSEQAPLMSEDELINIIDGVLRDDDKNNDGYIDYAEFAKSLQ
B2: Multiple coagulation factor deficiency protein 2 (Homo sapiens), Q8NI22 (parent)
chain: B1 partner
partner: B1 chain

Variants of B1 are the subject of the first test. The settings on record: with mcfd2_human MCFD2, Q8NI22.
For R45A, the “effect of a mutation on the interaction” value is recorded as “decreasing interaction”.

In the next test the parent is B2. To be noted: with lman1_human LMAN1, P49257.
On to D122V, for which the “effect of a mutation on the interaction” value is “disrupting interaction”.

Variants of B2 are the subject of the next test. The settings on record: with lman1_human LMAN1, P49257. This is another data set of the same source.
As for D122V, the “effect of a mutation on the interaction” value is given as “decreasing interaction”.

Variants of B2 are the subject of another test. The settings on record: with lman1_human LMAN1, P49257. This is another data set of the same source.
Consider D89A, for which the “effect of a mutation on the interaction” value is “disrupting interaction”.
